± gives the standard error. For some of these results: Variants at the floor of the assay were thinned out.
B1: glmS ribozyme (parent)
chain: AUAAAAGCGCCAGAACUACAGAAAUGUAGUUGACGAGGAGGAGGUUUAUCGAAUUUUCGGCGGAUGCCUCCAAA

Tests used:
Details in all cases: with glucosamine-6-phosphate
glucosamine-6-phosphate [1] = variants of: B1; assay: kcat; higher = faster cleavage; RNA array
Outline: (§1)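 Glucosamine-6-phosphate in HEPES/KCl/Mg(OAc)2 buffer, at 40 μM to 10 mM, was flowed over barcoded ribozyme variants transcribed in situ by E. coli RNA polymerase on sequenced MiSeq chips. Tracking was through a hybridised Cy3 probe at 37 °C. kobs, kcat and KM came from exponential decay fits and weighted Michaelis–Menten fits of normalised per-tile medians.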

glucosamine-6-phosphate [2] = variants of: B1; assay: self-cleavage kobs at 40 uM GlcN6P; higher = faster cleavage; RNA array
Outline: as §1

glucosamine-6-phosphate [3] = variants of: B1; assay: self-cleavage kobs at 160 uM GlcN6P; higher = faster cleavage; RNA array
Outline: as §1

glucosamine-6-phosphate [4] = variants of: B1; assay: self-cleavage kobs at 640 uM GlcN6P; higher = faster cleavage; RNA array
Outline: as §1

glucosamine-6-phosphate [5] = variants of: B1; assay: self-cleavage kobs at 2500 uM GlcN6P; higher = faster cleavage; RNA array
Outline: as §1

glucosamine-6-phosphate [6] = variants of: B1; assay: self-cleavage kobs at 10000 uM GlcN6P; higher = faster cleavage; RNA array
Outline: as §1

glucosamine-6-phosphate [7] = variants of: B1; assay: KM; higher = weaker cofactor use; RNA array
Outline: as §1

Variant | kcat (glucosamine-6-phosphate [1]) | self-cleavage kobs at 40 uM GlcN6P (glucosamine-6-phosphate [2]) | self-cleavage kobs at 160 uM GlcN6P (glucosamine-6-phosphate [3]) | self-cleavage kobs at 640 uM GlcN6P (glucosamine-6-phosphate [4]) | self-cleavage kobs at 2500 uM GlcN6P (glucosamine-6-phosphate [5]) | self-cleavage kobs at 10000 uM GlcN6P (glucosamine-6-phosphate [6]) | KM (glucosamine-6-phosphate [7])
A39G C68A | 2.73e-05 ± 9.4e-06 s⁻¹ | – | – | – | – | – | –
G38U C58U U69G | 0.000168 ± 1.3e-05 s⁻¹ | 0.000148 ± 4.2e-05 s⁻¹ | 0.000207 ± 5.2e-05 s⁻¹ | 0.000157 ± 2.8e-05 s⁻¹ | 0.000189 ± 6.3e-05 s⁻¹ | 0.000156 ± 4.9e-05 s⁻¹ | –
U31G U45G | 0.00239 ± 0.00077 s⁻¹ | – | – | 0.000405 ± 0.0001 s⁻¹ | 0.00155 ± 0.00034 s⁻¹ | 0.00164 ± 0.00042 s⁻¹ | –
G32C U56G | 5.69e-05 ± 1.6e-06 s⁻¹ | < 1e-05 s⁻¹ | – | 2.63e-05 ± 1.3e-05 s⁻¹ | 4.76e-05 ± 1.1e-05 s⁻¹ | 5.27e-05 ± 7.2e-06 s⁻¹ | 663 ± 110 µM
G37U C61U | < 1e-05 s⁻¹ | – | – | – | – | – | –
G32U U56A | 0.00196 ± 0.00014 s⁻¹ | – | 3.3e-05 ± 1.3e-05 s⁻¹ | 0.000156 ± 2.9e-05 s⁻¹ | 0.000494 ± 7.9e-05 s⁻¹ | 0.0011 ± 9.2e-05 s⁻¹ | 7730 ± 900 µM
G40A G66U | 0.000238 ± 1.9e-05 s⁻¹ | – | – | 6.02e-05 ± 1.2e-05 s⁻¹ | 0.000124 ± 2e-05 s⁻¹ | 0.000203 ± 3.5e-05 s⁻¹ | 2050 ± 330 µM
G38A U65A | < 1e-05 s⁻¹ | – | – | – | – | – | –
G32A G37A | 0.00051 ± 0.00011 s⁻¹ | – | – | – | 4.62e-05 ± 1e-05 s⁻¹ | 0.000143 ± 1.8e-05 s⁻¹ | –
G38C U47A | < 1e-05 s⁻¹ | < 1e-05 s⁻¹ | < 1e-05 s⁻¹ | – | < 1e-05 s⁻¹ | < 1e-05 s⁻¹ | –
U31C U69G | 3.99e-05 ± 1.4e-05 s⁻¹ | – | – | – | 5.64e-05 ± 1.6e-05 s⁻¹ | – | –
G38A C67A | < 1e-05 s⁻¹ | < 1e-05 s⁻¹ | – | – | – | – | –
A39G G43U | 0.000168 ± 1e-05 s⁻¹ | – | – | 5.98e-05 ± 1.8e-05 s⁻¹ | 0.000119 ± 3.3e-05 s⁻¹ | 0.000149 ± 2.2e-05 s⁻¹ | 1170 ± 240 µM
G32A A42U C70A | < 1e-05 s⁻¹ | < 1e-05 s⁻¹ | < 1e-05 s⁻¹ | < 1e-05 s⁻¹ | – | – | –
G38A C71A | < 1e-05 s⁻¹ | – | – | – | – | < 1e-05 s⁻¹ | –
A39U U69G | 6.87e-05 ± 1e-05 s⁻¹ | – | – | 4.85e-05 ± 1.5e-05 s⁻¹ | 4.76e-05 ± 1.3e-05 s⁻¹ | 7.29e-05 ± 1.5e-05 s⁻¹ | –
G37C U47G U69G | 7.04e-05 ± 2.8e-05 s⁻¹ | – | 7.9e-05 ± 2.3e-05 s⁻¹ | 5.97e-05 ± 2e-05 s⁻¹ | 0.000138 ± 4.1e-05 s⁻¹ | – | –
G32A C70A | 7.22e-05 ± 1.4e-05 s⁻¹ | – | – | 8.06e-05 ± 1.2e-05 s⁻¹ | 8.73e-05 ± 8.9e-06 s⁻¹ | 5.13e-05 ± 8.6e-06 s⁻¹ | –
G40A A48U | 0.000176 ± 1.7e-05 s⁻¹ | – | – | 2.83e-05 ± 8.5e-06 s⁻¹ | 9.03e-05 ± 1.2e-05 s⁻¹ | 0.000133 ± 1.7e-05 s⁻¹ | 2780 ± 590 µM

— the supplement of paper PMC7125110
